Data taken from patent publication US20150274802A1.
Square brackets hold non-standard residues; d marks the D form. Primed or numbered codes have the meaning given here. Ends that are not written are not given here. PEG4″ = 4-unit polyethylene glycol spacer; PEG8″ = 8-unit polyethylene glycol spacer

Key:
[1] = target: type A insulin receptor, P06213; experiment: cell-based or functional assay
[2] = target: type B insulin receptor, P06213; experiment: cell-based or functional assay
type A insulin receptor [3] = target: type A insulin receptor (UniProt P06213); experiment: cell-based or functional assay
type A insulin receptor [4] = target: type A insulin receptor (UniProt P06213); experiment: competitive binding SPA, subtype A insulin receptor (FIG. 17D)

B1: #58: Lys^C8-PEG20K-Lys^C8 #3 dimer (ligand)
chain: Ac-GPEHLCGAELVDALYLVCGDRGFY[PEG8″]KGIVDECCFRSCDLRRLENYCN
modifications: not fully specified (some residues); numbers in words are those of the source; ends and bridges not checked; also: dimer: linker Lys epsilon-amines of two chains joined by bifunctional 20K PEG linker
Phosphorylation (EC50), % IR-A [1]: 18.6%

B2: #59: Cys^B1-Lys^C8 #2(sc)-#3 dimer (ligand)
chain 1: CGPEHLCGAELVDALYLVCGDRGFYFNKKGIVDECCFRSCDLRRLENYCN
chain 2: GPEHLCGAELVDALYLVCGDRGFYKGIVDECCFRSCDLRRLENYCN
modifications: here or on the partner: N-terminus acetylated; linker Lys epsilon-amine mercaptopropionylated; Cys B1 side chain disulfide-linked to the mercaptopropionyl group on the linker Lys of the second chain
maximal response [2]: 10% | IC50, antagonism test [1]: 2.08 nM

B3: #60: Cys^B1-Lys^C8 #2(tc)-#3 dimer (ligand)
chain 1: CGPEHLCGAELVDALYLVCGDRGFYFNKK
chain 2: GIVDECCFRSCDLRRLENYCN
chain 3: B2 chain 2
modifications: here or on the partner: N-terminus acetylated; linker Lys epsilon-amine mercaptopropionylated; Cys B1 side chain disulfide-linked to the mercaptopropionyl group on the linker Lys of the single-chain unit
maximal response [2]: 50% | IC50, antagonism test [1]: 1.89 nM | maximal receptor response [1]: 50%

B4: #57: Gly^B2-PEG20K-Gly^B2 #11 dimer (ligand)
chain: GPEHLCGAHLVDALYLVCGDRGFYGYGSSSRRAPQTGIVDECCHRSCDLRRLENYCN
modifications: not fully specified (N-terminus); ends and bridges not checked; also: dimer: N-terminal amines of two chains joined by bifunctional 20K PEG linker
% Insulin Activity (in vitro, assay not named) [2]: 5.8% | Phosphorylation (EC50), % IR-B [2]: 5.8% | potency against the 20K PEGylated monomer (#39) [2]: 4 fold | % Insulin Activity (in vitro, assay not named) [1]: 19.7% | Phosphorylation (EC50), % IR-A [1]: 19.7% | potency against the 20K PEGylated monomer (#39) [1]: 4 fold

B5: #56: Gly^B2-PEG10K-Gly^B2 #11 dimer (ligand)
chain: B4 chain
modifications: not fully specified (N-terminus); ends and bridges not checked; also: dimer: N-terminal amines of two chains joined by bifunctional 10K PEG linker
Phosphorylation (EC50), % IR-B [2]: 9.7% | Phosphorylation (EC50), % IR-A [1]: 38.2%

B6: #55: Lys^B1-PEG9-Lys^B1 #20* dimer, GE5K-B^1(H5,10Y16L17)25-C^1-A^1(H8N18,21) (ligand)
chain: GEEEEEKGPEHLCGAHLVDALYLVCGDRGFYGYGSSSRRAPQTGIVDECCHRSCDLRRLENYCN
Phosphorylation (EC50), % IR-A (type A insulin receptor [3]): 44%

B7: #53: Lys^C8-Lys^C8 #3 dimer, B^1[H5Y16L17]25-PEG8KPEG4-A^1[N18,21] (ligand)
chain: Ac-GPEHLCGAELVDALYLVCGDRGFY[PEG8″]K(mercaptopropionyl)[PEG4″]GIVDECCFRSCDLRRLENYCN
modifications: ends and bridges not checked; also: dimer: linker Lys side chains joined by disulfide to second chain
binding affinity, fold against native insulin (type A insulin receptor [4]): 1.5 fold
